These results are taken from US20240254204A1 (published 2024).

For assay [1], the target named is Bat CoV BANAL-52.
The target of assay [2] is Pangolin CoV GX-.
Assay [3] deals with SARS-CoV-2 Delta.
In assay [4] the target is SARS-CoV-1.
Assay [5] deals with Bat CoV WIV-1 (SC1r-CoV WIV-1).
The target in assay [6] is SARS-CoV-2 Lambda (SARS-CoV-2 Lambda).
The target of assay [7] is Bat CoV Rs2018B (SC1r-CoV Rs2018B).
For assay [8], the target named is Bat CoV LYRa11.
Assay [9] has as its target Bat CoV BANAL-236.
In assay [10] the target is SARS-CoV-2 Mu.
The target in assay [11] is SARS-CoV-2 Delta Plus.
For assay [12], the target named is Pangolin CoV GD-1.
The target of assay [13] is SARS-CoV-2.
Assay [14] addresses Bat CoV RsSHC014 (SC1r-CoV RsSHC014).
The target in assay [15] is SC2r-COV RaTG13 RBD (SC2r-CoV RaTG13 (bat)).
Assay [16] addresses SARS-COV-2 Omicron BA.1 RBD (SARS-CoV-2 Omicron BA.1).
Assay [17] has as its target SARS-COV-2 Omicron BA.2 RBD (SARS-CoV-2 Omicron BA.2).
The target in assay [18] is SARS-CoV-2 Gamma.
Assay [19] concerns the target SARS-COV-2 B.1.351 RBD (SARS-CoV-2 B.1.351 (Beta)).

B1: F5 (antibody, V domains shown)
VH: QVQLQESGPGLVKPSETLSLTCTVSGGSIIGYYWSWIRQPPGKGLEWIGYIYFSANTNYNPSLKSRVTMSVDMSKKQFSLKLRSVTAADTAVYYCARGGGYLETGPLDFWGQGILVTVSS
VL: DIVMTQSPLSLPVTPGEPASISCRSSQSLMQLNGYNYLAWYLQRPGQSPQLLIYLGSTRASGVPDRFSGSGSGTDFTLKITRVEAEDVGVYYCMQGLQIPGTFGQGTRLEIK
Take B1: the IC50 in [1] was determined as 0.027 µg/mL; in assay [2], 0.025 µg/mL; in assay [3] it was 0.034 µg/mL; in assay [4], 0.019 µg/mL; in assay [5] it was 0.012 µg/mL; in assay [6], 0.014 µg/mL. Moreover, the IC50 in assay [7] stood at 0.015 µg/mL; in assay [8] it was 0.01 µg/mL; in assay [9], 0.033 µg/mL; in [10], 0.024 µg/mL; in assay [11] it was 0.03 µg/mL; in assay [12], 0.019 µg/mL. Besides, the half-inhibitory concentration (IC50) is 0.03 µg/mL in assay [13] and 0.012 µg/mL in assay [14].

B2: Antibody 20 (SS6V20-F5) (antibody, V domains shown)
VH: QVQLQESGPGLVKPSETLSLTCTVSGGSIIGYYWSWIRQPPGKGLEWIGYIYFSANTNYNPSLKSRVTMSVDMSKKQFSLKLRSVTAADTAVYYCARGGGYLETGPLDFWGQGILVTVSS
VL: DIVMTQSPLSLPVTPGEPASISCRSSQSLMQLNGYNYLAWYLQRPGQSPQLLIYLGSTRASGVPDRFSGSGSGTDFTLKITRVEAEDVGVYYCMQGLQIPGTFGQGTRLEIK
B2: the half-inhibitory concentration (IC50) was determined as 0.015 µg/mL in [15], 0.072 µg/mL in [16] and 0.246 µg/mL in [17].

B3: E7 (antibody, V domains shown)
VH: QVQLQESGPGLVKPSETLSLTCTVSGGFIGPHYWSWVRQPPGKGLEWIGYIYISGSTNYNPSLKSRLTISVDMSKSQFSLTLSSATAADTAVYYCARGGGYLETGPFEYWGQGTLVTVSS
VL: DIVMTQSPLSLPVTPGEPASISCRSSQSLLQNNGYNYLAWYLQKPGQSPQLLIYLSSTRASGVPDRFSGSGSGTDFTLKISRVEAEDVGVYYCMQSLQIPGTFGQGTRLEIK
With B3, the IC50 in assay [2] was 0.039 µg/mL; in [3] it was 0.097 µg/mL; in assay [5], 0.03 µg/mL; in assay [6], 0.032 µg/mL; in assay [7] it was 0.032 µg/mL; in assay [8], 0.021 µg/mL. Also, the half-inhibitory concentration (IC50) came out at 0.073 µg/mL in assay [12] and 0.022 µg/mL in assay [14].

B4: F1 (antibody, V domains shown)
VH: QVQLQESGPGLVKPSETLSLTCSVSGVSILGSYWGWIRQPPGTGLQWIGYIYFSENTNYNPSLQSRVTMSLDTSKNLLSLKLSSVTAADTAVYYCARGGGYLETGPFDSWGQGTLVTVSS
VL: DIVMTQSPLSLPVTPGEPASISCRSSQGLVQSNGYNYLAWYLQKPGQSPQLLIYLGSNRASGVPDRFSGSGSGTDFTLKISRVEAEDVGVYYCMQGLQTPGTFGQGTRLEIK
Regarding B4, the IC50 was found to be 0.12 µg/mL in assay [3]; 0.073 µg/mL in [4]; 0.037 µg/mL in [5]; 0.031 µg/mL in assay [8]; 0.112 µg/mL in [11]; 0.082 µg/mL in assay [18].

B5: Antibody 13 (SS6V13-F1) (antibody, V domains shown)
VH: QVQLQESGPGLVKPSETLSLTCSVSGVSILGSYWGWIRQPPGTGLQWIGYIYFSENTNYNPSLQSRVTMSLDTSKNLLSLKLSSVTAADTAVYYCARGGGYLETGPFDSWGQGTLVTVSS
VL: DIVMTQSPLSLPVTPGEPASISCRSSQGLVQSNGYNYLAWYLQKPGQSPQLLIYLGSNRASGVPDRFSGSGSGTDFTLKISRVEAEDVGVYYCMQGLQTPGTFGQGTRLEIK
Consider B5, for which the IC50 in [19] stood at 0.087 µg/mL.

B6: Antibody 11 (SS6V11-E7) (antibody, V domains shown)
VH: QVQLQESGPGLVKPSETLSLTCTVSGGFIGPHYWSWVRQPPGKGLEWIGYIYISGSTNYNPSLKSRLTISVDMSKSQFSLTLSSATAADTAVYYCARGGGYLETGPFEYWGQGTLVTVSS
VL: DIVMTQSPLSLPVTPGEPASISCRSSQSLLQNNGYNYLAWYLQKPGQSPQLLIYLSSTRASGVPDRFSGSGSGTDFTLKISRVEAEDVGVYYCMQSLQIPGTFGQGTRLEIK
As to B6, the results for the half-maximal inhibitory concentration (IC50) in assay [19] and in assay [17] were 0.044 µg/mL and 0.222 µg/mL, respectively.
